# Measurements: patent US10858688B2, “Observation method using binding and dissociation probe” (KYOTO UNIVERSITY, priority 2015, dated 2020)
# Experiments:
# microtubule [1] = test: IRIS image test (reconstruction image); assay type: cell-based, Xenopus laevis; parameters: key: “IRIS image” is positive (P) when above criterion (3) is met; conditions: reconstruction from 10000 frames with DAOSTORM
# Method: (§1) […] It is possible to reconstruct an image of a target substance by integrating the central positions of the respective speckles. The IRIS image test of the above (3) whose result is described in table 1 was performed in the following procedures. By using all the speckle images of 10000 frames picked up in the localization test, the central point of a probe that has bound to a target in each frame of the speckle images was determined with nanometer accuracy by using DAOSTORM. By adding a large number of pieces of central point information in the fluorescence images of 10000 frames, a reconstruction image (observation image) was generated. Whether or not a distribution of a target molecule was able to be observed in that reconstruction image was determined, and when a distribution of a target molecule was observed, the result was treated as P (positive).
# microtubule [2] = test: Washability test of probe candidates; assay type: cell-based, Xenopus laevis; parameters: key: “washability” is positive (P) when above criterion (2) is met; conditions: speckles equal to or less than about 10% after switching imaging solution 10 to 20 times
# Method: (§2) (2) It is possible to wash and remove a probe after SiMS imaging (imaging step);
# (§3) The […] of the above (2), whose result is shown in table 1, was performed in the following procedures. […] This switching of imaging solution was conducted slowly so that the observation position would not shift. Next, an imaging solution not containing a probe and not containing the active oxygen-scavenging mix was switched 10 to 20 times. After the switching, for confirmation, for an XCT cell sample in the observation chamber, speckle images of 10 frames were picked up under a similar condition to that of the localization test described in the previous paragraph, and when the number of speckles confirmed in the speckle images (i.e., the number of probes that had bound) became sufficiently smaller (equal to or less than about 10%) than the number of the speckles in the speckle images before the washing operation, washing was determined to be possible and the result was treated as P (positive).
# microtubule [3] = test: Localization test of probe candidates (integrated SiMS images); assay type: cell-based, Xenopus laevis; parameters: key: “localization” is positive (P) when above criterion (1) is met; conditions: fixed, permeabilized XTC cell; lysate supernatant of EGFP fused probe; TIRF, 10000 frames
# Method: (§4) HEK (Human embryonic kidney)-293F cells were transfected with a plasmid encoding a probe candidate protein tagged with FLAG-EGFP or 3×FLAG-EGFP. […] Centrifugal separation was performed on the lysate and the supernatant liquid was collected. In order to perform screening for a probe for IRIS, the binding capacity of a probe candidate in the supernatant liquid with respect to the structure of an XCT cell that was fixed with paraformaldehyde (PFA) and that received a permeabilization process was tested. The appearance and disappearance of single molecule speckles (Single-molecule speckles, SiMS) in the structure was tested. Screening was performed for a probe for IRIS in accordance with the following criteria:
# (§5) (1) It is possible to confirm a distribution of target substances in the structure in an image resulting from adding SiMS images;
# (§6) The localization test of the above (1), whose result is shown in table 1, was performed in the following procedures. First, the supernatant liquid of lysate of a cell that expressed each probe candidate was brought into contact with an XCT cell that was fixed on a coverglass and that received a permeabilization process. […] The obtained speckle images of 10000 frames were integrated so as to confirm whether or not a distribution of target substances in the cell (microtubule, intermediate filament, focal adhesion or actin filament) was able to be confirmed. When a distribution of a target substances was able to be confirmed, the result of the localization test was treated as P (positive).
# microtubule [4] = test: Measurement of binding half-life of probe-target complex; parameters: species or system Xenopus laevis; conditions: fixed XTC cell, single exponential fit
# Description: (§7) A probe and a target substance have the following binding characteristics. […] The above half-life herein is preferably a half-life of a probe-target complex formed by binding between a probe and a target substance in a case when a medium containing a probe and a sample containing a target substance that is to be observed are brought into contact under a condition for performing an imaging step. […] Measurement procedures for the half-life are as below. […] Ndissociation is a cumulative relative frequency of a probe that dissociated. A cumulative relative frequency is a ratio of the speckles that disappeared within a given period of time to the total number of measured speckles (i.e. probes) (i.e. probes that dissociated within a given period of time), and represents the total number as 1. Then, by fitting the above complementary cumulative relative frequency function with an exponent function, that half-life is calculated.
# The measurement of binding half-life, whose result is shown in table 1, was performed in the following procedures. Speckle images of 10000 frames picked up in the localization test were used in order to measure a period of time between the appearance of a probe that has bound to a target in a speckle image and disappearance through dissociation in a semi-manual mode by using Speckle TrackerJ, an ImageJ plug-in. In case of for example picking up of images with an exposure time of 50 ms and at a frame rate of 20 Hz, it is assumed that a period of time between the appearance and disappearance of a speckle that is observed in only one of consecutive frames is 50 ms and a period of time between the appearance and disappearance of a speckle observed in only two consecutive frames is 100 ms. […] Ndissociation is a cumulative relative frequency of probes that dissociated. Then, by fitting the complementary cumulative relative frequency function with an exponent function, the half-life was calculated. However, the binding half-life with respect to an actin filament of Atto488-Lifeact was measured by using a method that is described in detail in the section for FIG. 9 in the Brief Description of the Drawings.
# focal adhesion [5] = test: IRIS image test (reconstruction image); assay type: cell-based, Xenopus laevis; parameters: key: “IRIS image” is positive (P) when above criterion (3) is met; conditions: reconstruction from 10000 frames with DAOSTORM
# Method: as §1
# focal adhesion [6] = test: Washability test of probe candidates; assay type: cell-based, Xenopus laevis; parameters: key: “washability” is positive (P) when above criterion (2) is met; conditions: speckles equal to or less than about 10% after switching imaging solution 10 to 20 times
# Method: as §2, §3
# focal adhesion [7] = test: Measurement of binding half-life of probe-target complex; parameters: species or system Xenopus laevis; conditions: fixed XTC cell, single exponential fit
# Description: as §7
# The measurement of binding half-life, whose result is shown in table 1, was performed in the following procedures. […] Then, by fitting the complementary cumulative relative frequency function with an exponent function, the half-life was calculated. However, the binding half-life with respect to an actin filament of Atto488-Lifeact was measured by using a method that is described in detail in the section for FIG. 9 in the Brief Description of the Drawings.
# focal adhesion [8] = test: Localization test of probe candidates (integrated SiMS images); assay type: cell-based, Xenopus laevis; parameters: key: “localization” is positive (P) when above criterion (1) is met; conditions: fixed, permeabilized XTC cell; lysate supernatant of EGFP fused probe; TIRF, 10000 frames
# Method: as §4, §5, §6
HALF-LIFE (microtubule [4]),HALF-LIFE (focal adhesion [7]),Molecule,IRIS IMAGE (microtubule [1]),WASHABILITY (microtubule [2]),LOCALIZATION (microtubule [3]),IRIS IMAGE (focal adhesion [5]),WASHABILITY (focal adhesion [6]),LOCALIZATION (focal adhesion [8])
0.106 s,,"MAP4 659-908: EGFP fused (N terminus) mouse MAP4 fragment, amino acid residues 659-908 of sequence number 4 (protein, UniProt P27546 659-908, looked up, fragment, N-terminal EGFP fusion) PPNKEPPPSPEKKAKPLATTQPAKTSTSKAKTQPTSLPKQPAPTTSGGLNKKPMSLASGSVPAAPHKRPAAATATARPSTLPARDVKPKPITEAKVAEKRTSPSKPSSAPALKPGPKTTPTVSKATSPSTLVSTGPSSRSPATTLPKRPTSIKTEGKPADVKRMTAKSASADLSRSKTTSASSVKRNTTPTGAAPPAGMTSTRVKPMSAPSRSSGALSVDKKPTSTKPSSSAPRVSRLATTVSAPDLKSV",P,P,P,,,
,0.091 s,"Paxillin 54-498: EGFP fused (N terminus) human Paxillin fragment, residues 54-498 of sequence number 15 (protein, UniProt P49023 54-498, looked up, fragment, N-terminal EGFP fusion) SSEALNGTILDPLDQWQPSSSRFIHQQPQSSSPVYGSSAKTSSVSNPQDSVGSPCSRVGEEEHVYSFPNKQKSAEPSPTVMSTSLGSNLSELDRLLLELNAVQHNPPGFPADEANSSPPLPGALSPLYGVPETNSPLGGKAGPLTKEKPKRNGGRGLEDVRPSVESLLDELESSVPSPVPAITVNQGEMSSPQRVTSTQQQTRISASSATRELDELMASLSDFKIQGLEQRADGERCWAAGWPRDGGRSSPGGQDEGGFMAQGKTGSSSPPGGPPKPGSQLDSMLGSLQSDLNKLGVATVAKGVCGACKKPIAGQVVTAMGKTWHPEHFVCTHCQEEIGSRNFFERDGQPYCEKDYHNLFSPRCYYCNGPILDKVVTALDRTWHPEHFFCAQCGAFFGPEGFHEKDGKAYCRKDYFDMFAPKCGGCARAILENYISALNTLWHPE",,,,P,P,P
,0.138 s,"Paxillin 167-557: EGFP fused (N terminus) human Paxillin fragment, residues 167-557 of sequence number 15 (protein, UniProt P49023 167-557, looked up, fragment, N-terminal EGFP fusion) ANSSPPLPGALSPLYGVPETNSPLGGKAGPLTKEKPKRNGGRGLEDVRPSVESLLDELESSVPSPVPAITVNQGEMSSPQRVTSTQQQTRISASSATRELDELMASLSDFKIQGLEQRADGERCWAAGWPRDGGRSSPGGQDEGGFMAQGKTGSSSPPGGPPKPGSQLDSMLGSLQSDLNKLGVATVAKGVCGACKKPIAGQVVTAMGKTWHPEHFVCTHCQEEIGSRNFFERDGQPYCEKDYHNLFSPRCYYCNGPILDKVVTALDRTWHPEHFFCAQCGAFFGPEGFHEKDGKAYCRKDYFDMFAPKCGGCARAILENYISALNTLWHPECFVCRECFTPFVNGSFFEHDGQPYCEVHYHERRGSLCSGCQKPITGRCITAMAKKFHPE",,,,P,P,P
